IntAct's records for PubMed 23803857

B1: C-type lectin domain family 2 member A (Homo sapiens), Q6UVW9 (parent)
chain: MINPELRDGRADGFIHRIVPKLIQNWKIGLMCFLSIIITTVCIIMIATWSKHAKPVACSGDWLGVRDKCFYFSDDTRNWTASKIFCSLQKAELAQIDTQEDMEFLKRYAGTDMHWIGLSRKQGDSWKWTNGTTFNGWFEIIGNGSFAFLSADGVHSSRGFIDIKWICSKPKYFL
partner: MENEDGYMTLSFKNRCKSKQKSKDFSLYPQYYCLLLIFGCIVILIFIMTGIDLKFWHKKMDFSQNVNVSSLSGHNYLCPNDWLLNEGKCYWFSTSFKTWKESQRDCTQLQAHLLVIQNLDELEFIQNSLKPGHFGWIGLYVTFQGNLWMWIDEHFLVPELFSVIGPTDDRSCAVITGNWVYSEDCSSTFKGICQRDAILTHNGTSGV

Variants of: B1
Conditions: with klrf2_human KLRF2, D3W0D1

Effect of a mutation on the interaction, decreasing interaction strength:
MINPELRDGRADGFIHRIVPKLIQNWKIGLMCFLSIIITTVCIIMIATWSKHAKPVACSGDWLGVRDKCFYFSDDTRNWTASKIFCSLQKAELAQIDTQEDMEFLKRYAGTDMHWIGLSRKQGDSWKWTNGTTFNGWFEIIGNGSFAFLSADGVASSRGFIDIKWICSKPKYFL [H155A]
MINPELRDGRADGFIHRIVPKLIQNWKIGLMCFLSIIITTVCIIMIATWSKHAKPVACSGDWLGVRDKCFYFSDDTRNWTASKIFCSLQKAELAQIDTQEDMEFLKRYAGTDMHWIGLSRKQGDSWKWTNGTTFNGWFEIIGNGSFAALSADGVHSSRGFIDIKWICSKPKYFL [F148A]
MINPELRDGRADGFIHRIVPKLIQNWKIGLMCFLSIIITTVCIIMIATWSKHAKPVACSGDWLGVRDKCFYFSDDTRNWTASKIFCSLQKAELAQIDTQEDMEFLKRYAGTDMHWIGLSRKQGDSWKWTNGTTFNGWFEIIGNGSFAFLSADGVHSSRGFIAIKWICSKPKYFL [D162A]
MINPELRDGRADGFIHRIVPKLIQNWKIGLMCFLSIIITTVCIIMIATWSKHAKPVACSGDWLGVRDKCFYFSDDTRNWTASKIFCSLQKAELAQIDTQEDMEFLKRYAGTDMHWIGLSRKQGDSWKWTNGTTFNGWFEIIGNGSFAFLSADGVHSAAGFIDIKWICSKPKYFL [S157A;R158A]
MINPELRDGRADGFIHRIVPKLIQNWKIGLMCFLSIIITTVCIIMIATWSKHAKPVACSGDWLGVRDKCFYFSDDTRNWTASKIFCSLQKAELAQIDTQEDMEFLKRYAGTDMHWIGLSRKQGDSWKWTNGTTFNGWFEIIGNGSFAFLSADGVHSSRGAADIKWICSKPKYFL [F160A;I161A]

Effect of a mutation on the interaction, with no effect:
MINPELRDGRADGFIHRIVPKLIQNWKIGLMCFLSIIITTVCIIMIATWSKHAKPVACSGDWLGVRDKCFYFSDDTRNWTASKIFCSLQKAELAQIDTQEDMEFLKRYAGAAAHWIGLSRKQGDSWKWTNGTTFNGWFEIIGNGSFAFLSADGVHSSRGFIDIKWICSKPKYFL [T111A;D112A;M113A]
MINPELRDGRADGFIHRIVPKLIQNWKIGLMCFLSIIITTVCIIMIATWSKHAKPVACSGDWLGVRDKCFYFSDDTRNWTASKIFCSLQKAELAQIDTQEDMEFLKRYAGTDMHWIGLSRKQGDSWKWTNGTTFNGWFEIIGNGSFAFLSAAGVHSSRGFIDIKWICSKPKYFL [D152A]
